Measured values published in article PMC11655841 (Cell Death & Disease, 2024).

Experiments:
DARPin B9 [1] = assay: crystal structure; complex of DARPin and p73 domain mixed from purified proteins, isolated by SEC; sitting drop at 20 °C, 30% PEG2000MME, 0.15 M potassium bromide
DARPin B9 [2] = assay: ITC; target proteins (p53 family domains) titrated to constant concentrations of DARPin; 25 °C; 50 mM HEPES pH 7.4, 150 mM NaCl, 0.5 mM TCEP; MicroCal VP-ITC
[3] = target: DARPin 1800–1800 (DARPin 1800 fused to another DARPin 1800 via a (G4S)4 linker); assay: as above
[4] = target: DARPin B9 LZ (DARPin B9 dimerized via a leucine zipper) (yeast) (UniProt P03069); assay: as above
[5] = target: DARPin 1800 LZ (DARPin 1800 dimerized via a leucine zipper) (yeast) (UniProt P03069); assay: as above
DARPin 1800 [6] = assay: as above
[7] = target: DARPin B9-B9 (DARPin B9 fused to another DARPin B9 via a (G4S)4 linker); assay: as above
DARPin 1800 [8] = assay: crystal structure; complex of DARPin and p73 domain mixed from purified proteins, isolated by SEC; sitting drop at 20 °C, 30% PEG2000MME, 0.15 M potassium bromide; settings: scale: DARPin 1800 per p73 OD
[9] = target: the molecule itself; assay: as above

stoichiometry N (p73 SAM domain per DARPin B9) (DARPin B9 [1]) | Kd (DARPin B9 [2]) | Kd [3] | Kd [4] | Kd [5] | Kd (DARPin 1800 [6]) | Kd [7] | stoichiometry N (DARPin 1800 [8]) | Binder | binding result [9]
1 | 58.8 nM | – | – | – | – | – | – | p73 SAM domain (aa 489–550 of TAp73α) (domain or fragment) ADPSLVSFLTGLGCPNCIEYFTSQGLQSIYHLQNLTIEDLGALKIPEQYRMTIWRGLQDLKQ | –
– | 309 nM | 13 nM | 64 nM | 4 nM | 67 nM | 46 nM | – | p73 DBD-OD-SAM (amino acids 112–550 of TAp73α) (domain or fragment) APVIPSNTDYPGPHHFEVTFQQSSTAKSATWTYSPLLKKLYCQIAKTCPIQIKVSTPPPPGTAIRAMPVYKKAEHVTDVVKRCPNHELGRDFNEGQSAPASHLIRVEGNNLSQYVDDPVTGRQSVVVPYEPPQVGTEFTTILYNFMCNSSCVGGMNRRPILIIITLEMRDGQVLGRRSFEGRICACPGRDRKADEDHYREQQALNESSAKNGAASKRAFKQSPPAVPALGAGVKKRRHGDEDTYYLQVRGRENFEILMKLKESLELMELVPQPLVDSYRQQQQLLQRPSHLQPPSYGPVLSPMNKVHGGMNKLPSVNQLVGQPPPHSSAATPNLGPVGPGMLNNHGHAVPANGEMSSSHSAQSMVSGSHCTPPPPYHADPSLVSFLTGLGCPNCIEYFTSQGLQSIYHLQNLTIEDLGALKIPEQYRMTIWRGLQDLKQ | –
– | – | – | – | – | 94.5 nM | – | 2 | DEDTYYLQVRGRENFEILMKLKESLELMELVPQPLVDSYRQQQQLLQR (domain or fragment, UniProt O15350 351-398, looked up) [p73 oligomerization domain (aa 351–398 of TAp73α)] | binds
